This note sets out measurements from US20250129135A1, “Multi-Agonist and Use Thereof” (priority 2021, published 2025).

B1: Compound 17 (peptide)
peptide: YXQGTXTSDYSIFLDKKAQXAFIEYLLETGPSSGAPPPS
modifications: Aib at 2; αMeF(2F) at 6; Lys 17 side chain AEEAc-AEEAc-γGlu-CO(CH2)18COOH; Aib at 20; C-terminal amide (NH2)
B2: Compound 32 (peptide)
peptide: B1 peptide with T29X, G30H, P38X
modifications: Aib at 2; αMeF(2F) at 6; Lys 17 side chain AEEAc-AEEAc-γGlu-CO(CH2)18COOH; Aib at 20; Aib at 29; Ac3c at 38; C-terminal amide (NH2)
B3: Compound 21 (peptide)
peptide: B1 peptide with Y25F, T29G, A35Q
modifications: Aib at 2; αMeF(2F) at 6; Lys 17 side chain AEEAc-AEEAc-γGlu-CO(CH2)18COOH; Aib at 20; C-terminal amide (NH2)
B4: Compound 31 (peptide)
peptide: YXQGTXTSDYSIXLDKKAQXAFIEFLLEXHPSSGAPPXS
modifications: Aib at 2; αMeF(2F) at 6; αMeL at 13; Lys 17 side chain AEEAc-AEEAc-γGlu-CO(CH2)18COOH; Aib at 20; Aib at 29; Ac3c at 38; C-terminal amide (NH2)
B5: Compound 27 (peptide)
peptide: B1 peptide with F13X, T29S, G30H
modifications: Aib at 2; αMeF at 6; αMeF at 13; Lys 17 side chain AEEAc-AEEAc-γGlu-CO(CH2)18COOH; Aib at 20; C-terminal amide (NH2)
B6: Compound 23 (peptide)
peptide: B1 peptide with F13X, A35Q
modifications: Aib at 2; αMeF(2F) at 6; αMeL at 13; Lys 17 side chain AEEAc-AEEAc-γGlu-CO(CH2)18COOH; Aib at 20; C-terminal amide (NH2)
B7: Compound 28 (peptide)
peptide: Y[Aib]QGT[αMeF]TSDYSIXLDKK([AEEA-AEEA-γGlu-C20 diacid])AQ[Aib]AFIEFLLES[Aib]PSSGAPP[Ac3c]S-NH2
modifications: not fully specified (residue 13); printed as Y-Aib-QGT-αMeF-TSDYSI-αMeF-LDKK(AEEAc-AEEAc-γGlu-CO(CH2)18COOH)AQ-Aib-AFIEFLLES-Aib-PSSGAPP-Ac3c-S-NH2
B8: Compound 25 (peptide)
peptide: YXQGTXTSDYSIXLDKKAQXAFIEFLLEGRPSSXHPPPS
modifications: Aib at 2; αMeF(2F) at 6; αMeL at 13; Lys 17 side chain AEEAc-AEEAc-γGlu-CO(CH2)18COOH; Aib at 20; Aib at 34; C-terminal amide (NH2)
B9: Compound 38 (peptide)
peptide: B8 peptide with G29T, R30G
modifications: Aib at 2; αMeF(2F) at 6; αMeL at 13; Lys 17 side chain AEEAc-AEEAc-γGlu-CO(CH2)18COOH; Aib at 20; Aib at 34; C-terminal amide (NH2)
B10: Compound 1 (peptide)
peptide: B1 peptide with F13X, P38X
modifications: Aib at 2; αMeF at 6; αMeL at 13; Lys 17 side chain AEEAc-AEEAc-γGlu-CO(CH2)18COOH; Aib at 20; Ac3c at 38; C-terminal amide (NH2)

Positions count from the first letter of the chain named. Starred links: 1 amine or outer side, 2 acyl side, 3 side chain; linkers in the order of their positions; H or OH if unused. Non-standard residues stand in square brackets, D forms with d. Groups on a side chain read outwards from the residue. No end group written: not given here. *: point of attachment. C20 diacid = O=C(O)CCCCCCCCCCCCCCCCCCC(=O)*; γGlu = O=C(O)[C@H](CCC(=O)[*:2])N[*:1]; αMeF = C[C@](N)(Cc1ccccc1)C(=O)O; AEEA = NCCOCCOCC(=O)O; Ac3c = NC1(C(=O)O)CC1; Aib = CC(C)(N)C(=O)O

human GCG receptor, sequence (P47871 26-477): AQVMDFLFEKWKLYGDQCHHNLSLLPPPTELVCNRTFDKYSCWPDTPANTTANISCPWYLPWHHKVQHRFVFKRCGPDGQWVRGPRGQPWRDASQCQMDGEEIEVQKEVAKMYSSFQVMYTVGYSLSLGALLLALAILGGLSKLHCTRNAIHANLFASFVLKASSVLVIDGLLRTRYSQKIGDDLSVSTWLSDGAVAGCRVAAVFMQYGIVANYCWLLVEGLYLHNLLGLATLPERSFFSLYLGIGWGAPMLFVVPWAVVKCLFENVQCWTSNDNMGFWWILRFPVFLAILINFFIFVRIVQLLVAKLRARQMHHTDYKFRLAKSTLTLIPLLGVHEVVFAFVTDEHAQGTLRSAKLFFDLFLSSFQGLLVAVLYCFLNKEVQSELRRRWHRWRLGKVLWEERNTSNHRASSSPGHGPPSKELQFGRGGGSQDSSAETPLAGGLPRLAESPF

The first assay concerns the target human GLP-1 receptor (human, UniProt P43220 24-463). In words: cell-based or functional assay.
For the molecule B1, the “cAMP EC50, HEK-293 cells stably overexpressing human GLP-1 R” value is 11 pM and the “cAMP Rel. A (%) against human GLP-1 (7-37), human GLP-1 R cells” value (“cAMP Rel. A (%) … human GLP-1 R cells” for short) was 400%.
With B2, the “cAMP EC50, HEK-293 cells stably overexpressing human GLP-1 R” value was 14 pM and the “cAMP Rel. A (%) … human GLP-1 R cells” value worked out at 314%.
As to B3, the “cAMP EC50, HEK-293 cells stably overexpressing human GLP-1 R” value was 5 pM and the “cAMP Rel. A (%) … human GLP-1 R cells” value was found to be 880%.
Turning to B4, the “cAMP EC50, HEK-293 cells stably overexpressing human GLP-1 R” value came out at 12 pM and the “cAMP Rel. A (%) … human GLP-1 R cells” value came to 367%.
For B5, the “cAMP EC50, HEK-293 cells stably overexpressing human GLP-1 R” value was 16 pM and the “cAMP Rel. A (%) … human GLP-1 R cells” value is 275%.
Take B6: the “cAMP EC50, HEK-293 cells stably overexpressing human GLP-1 R” value was determined as 5 pM and the “cAMP Rel. A (%) … human GLP-1 R cells” value was 880%.
On to B7, for which the “cAMP EC50, HEK-293 cells stably overexpressing human GLP-1 R” value was 24 pM and the “cAMP Rel. A (%) … human GLP-1 R cells” value amounted to 183%.
On to B8, for which the “cAMP EC50, HEK-293 cells stably overexpressing human GLP-1 R” value turned out to be 31 pM and the “cAMP Rel. A (%) … human GLP-1 R cells” value is 142%.

The target in a further assay is T1, human GIP receptor (human, UniProt P48546 22-466).
T1 sequence (looked up): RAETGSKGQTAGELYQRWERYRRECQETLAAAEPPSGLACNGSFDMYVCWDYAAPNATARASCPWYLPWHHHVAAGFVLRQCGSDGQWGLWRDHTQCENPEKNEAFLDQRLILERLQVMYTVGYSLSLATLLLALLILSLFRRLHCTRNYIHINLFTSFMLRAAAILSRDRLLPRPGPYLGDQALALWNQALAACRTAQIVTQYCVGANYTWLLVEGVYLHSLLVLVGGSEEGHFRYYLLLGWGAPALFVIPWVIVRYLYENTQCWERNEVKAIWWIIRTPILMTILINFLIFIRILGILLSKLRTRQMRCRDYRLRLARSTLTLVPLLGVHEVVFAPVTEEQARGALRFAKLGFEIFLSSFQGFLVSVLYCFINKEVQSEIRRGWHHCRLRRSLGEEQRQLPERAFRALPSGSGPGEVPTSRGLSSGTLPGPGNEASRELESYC
In words: cell-based or functional assay.
Regarding B1, the “cAMP Rel. A (%) against human GIP, human GIP R cells” value (shortened to “cAMP Rel. A (%) against human GIP”) was determined as 953%.
For B2, the “cAMP EC50, CHO cells stably overexpressing human GIP R” value was 11 pM and the “cAMP Rel. A (%) against human GIP” value is 1650%.
For B3, the “cAMP EC50, CHO cells stably overexpressing human GIP R” value came out at 8 pM and the “cAMP Rel. A (%) against human GIP” value was 2260%.
In the case of B4, the “cAMP Rel. A (%) against human GIP” value is 2010%.
Take B5: the “cAMP EC50, CHO cells stably overexpressing human GIP R” value was 23 pM and the “cAMP Rel. A (%) against human GIP” value is 787%.
In the case of B6, the “cAMP EC50, CHO cells stably overexpressing human GIP R” value worked out at 7 pM and the “cAMP Rel. A (%) against human GIP” value was 2590%.
Consider B9, for which the “cAMP EC50, CHO cells stably overexpressing human GIP R” value was 13 pM.
Take B10: the “cAMP EC50, CHO cells stably overexpressing human GIP R” value turned out to be 15 pM and the “cAMP Rel. A (%) against human GIP” value is 1210%.
As for B7, the “cAMP EC50, CHO cells stably overexpressing human GIP R” value is 11 pM and the “cAMP Rel. A (%) against human GIP” value is 1650%.
Turning to B8, the “cAMP EC50, CHO cells stably overexpressing human GIP R” value came to 13 pM and the “cAMP Rel. A (%) against human GIP” value was found to be 1390%.

The next assay concerns the target human GCG receptor (human, UniProt P47871 26-477). In words: cell-based or functional assay.
Regarding B1, the “cAMP Rel. A (%) against human GCG, human GCG R cells” value (“cAMP Rel. A (%) against human GCG” for short) came to 163%.
On to B2, for which the “cAMP EC50, HEK-293 cells stably overexpressing human GCG R” value turned out to be 17 pM and the “cAMP Rel. A (%) against human GCG” value amounted to 335%.
The corresponding values for B3 are 25 pM and 228%.
In the case of B4, the “cAMP Rel. A (%) against human GCG” value worked out at 211%.
As for B5, the “cAMP Rel. A (%) against human GCG” value worked out at 96.6%.
For B6, the “cAMP EC50, HEK-293 cells stably overexpressing human GCG R” value is 25 pM and the “cAMP Rel. A (%) against human GCG” value was determined as 228%.
For B9, the “cAMP EC50, HEK-293 cells stably overexpressing human GCG R” value turned out to be 68 pM.
B10: the “cAMP Rel. A (%) against human GCG” value was 57.6%.
Regarding B7, the “cAMP EC50, HEK-293 cells stably overexpressing human GCG R” value came out at 154 pM and the “cAMP Rel. A (%) against human GCG” value was 37%.
With B8, the “cAMP EC50, HEK-293 cells stably overexpressing human GCG R” value was found to be 34 pM and the “cAMP Rel. A (%) against human GCG” value amounted to 168%.
